According to patent US20210269548A1 (Kyowa Kirin, published 2021):

Columns and labels:
[1] = target: human CSPG5-FLAG_Fc (human); assay: phage ELISA, immobilised antigen, anti-M13-HRP
Method: (§1) In the ELISA, human CSPG5-FLAG_Fc and mouse CSPG5-FLAG_Fc were immobilized on MAXISORP (manufactured by NUNC, Inc.), followed by blocking using SuperBlock Blocking Buffer (manufactured by Thermo Fisher Scientific, Inc.). As a negative control, a plate on which Fc was immobilized was also prepared.
(§2) To each well, each phage clone was added and allowed to react at room temperature for 30 minutes, and thereafter, each well was washed with PBS-T. Subsequently, a solution obtained by diluting an anti-M13 antibody (manufactured by GE Healthcare, Inc.) labeled with horseradish peroxidase with PBS-T comprising 10% Block Ace (manufactured by Dainippon Pharmaceutical Co., Ltd.) was added to each well and incubated at room temperature for 30 minutes. After the microplate was washed 3 times with PBS-T, a 3,3′,5,5′-tetramethylbenzidine (TMB) chromogenic substrate solution (manufactured by DAKO, Inc.) was added thereto, followed by incubation at room temperature. The coloring reaction was stopped by adding a 0.5 mol/L sulfuric acid to each well, and an absorbance at a wavelength of 450 nm (reference wavelength: 570 nm) was measured using a microplate reader. […]

[2] = target: mouse CSPG5-FLAG_Fc (mouse); assay: phage ELISA, immobilised antigen, anti-M13-HRP
Method: as §1, §2

[3] = target: T1, mouse CSPG5 (mouse, UniProt Q71M36 31-566); assay: FACS, 10 µg/mL antibody, mouse CSPG5/Expi293F vs Expi293F
T1 construct: Full-length gene expressed on Expi293F cells; also called mouse CSPG5/Expi293F cells
T1 sequence: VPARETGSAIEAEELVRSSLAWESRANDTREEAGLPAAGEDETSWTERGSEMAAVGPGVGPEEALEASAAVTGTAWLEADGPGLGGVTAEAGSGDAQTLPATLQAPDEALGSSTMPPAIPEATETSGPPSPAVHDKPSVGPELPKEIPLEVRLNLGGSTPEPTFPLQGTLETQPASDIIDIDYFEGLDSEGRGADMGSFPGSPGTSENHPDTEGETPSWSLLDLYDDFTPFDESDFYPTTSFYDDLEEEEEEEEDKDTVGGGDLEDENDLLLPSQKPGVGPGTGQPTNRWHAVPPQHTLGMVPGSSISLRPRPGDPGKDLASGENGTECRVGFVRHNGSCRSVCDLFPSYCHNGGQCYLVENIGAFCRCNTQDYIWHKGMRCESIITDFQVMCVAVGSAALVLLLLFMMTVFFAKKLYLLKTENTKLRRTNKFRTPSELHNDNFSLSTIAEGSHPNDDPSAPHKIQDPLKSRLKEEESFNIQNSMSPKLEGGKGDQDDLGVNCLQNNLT
Method: (§3) Expi293F cells, human CSPG5/Expi293F cells, mouse CSPG5/Expi293F cells, and monkey CSPG5/Expi293F cells were separately suspended in Staining Buffer (SB) of PBS comprising 0.1% NaN₃ and 1% FBS and dispensed in a round-bottom 96-well plate (manufactured by Becton, Dickinson and Company). After centrifugation (2000 rpm, 4° C., 2 minutes), the supernatant was removed, and to the resulting pellet, 10 μg/mL of each antibody obtained in Example 2 was added to suspend the pellet, and the resulting suspension was left to stand for 30 minutes at ice temperature. After further centrifugation (2000 rpm, 4° C., 2 minutes), the supernatant was removed, and the resulting pellet was washed with SB, and thereafter, 1 μg/mL of an RPE fluorescently labeled goat anti-human antibody (manufactured by Southern Biotech, Inc.) was added thereto, and the resultant was incubated for 30 minutes at ice temperature. After washing with SB, the cells were suspended in SB, and the fluorescence intensity of each cell was measured using a flow cytometer FACS CANTO II (manufactured by Becton, Dickinson and Company). Note that as a negative control, 10 μg/mL of the anti-AVM antibody was used.
(§4) The detection results were analyzed, and a mean fluorescence intensity (MFI) was calculated using a geometric mean. Further, with respect to the MFI when the concentration of each antibody was 10 μg/mL, the ratio of the MFI (mean fluorescence intensity ratio) between the human CSPG5/Expi293F cells and the Expi293F cells (parent cell line) was calculated. Also for the monkey CSPG5/Expi293F cells and the mouse CSPG5/Expi293F cells, the mean fluorescence intensity ratio relative to the Expi293F cells (parent cell line) was calculated by the same procedure, and the results are shown in Table 3.

[4] = target: T2, human CSPG5 (human, UniProt O95196 31-566); assay: FACS, 10 µg/mL antibody, human CSPG5/Expi293F vs Expi293F
T2 construct: Full-length gene expressed on cell membrane (Expi293F, L929); also called human CSPG5/Expi293F cells; human CSPG5/L929#09
T2 sequence: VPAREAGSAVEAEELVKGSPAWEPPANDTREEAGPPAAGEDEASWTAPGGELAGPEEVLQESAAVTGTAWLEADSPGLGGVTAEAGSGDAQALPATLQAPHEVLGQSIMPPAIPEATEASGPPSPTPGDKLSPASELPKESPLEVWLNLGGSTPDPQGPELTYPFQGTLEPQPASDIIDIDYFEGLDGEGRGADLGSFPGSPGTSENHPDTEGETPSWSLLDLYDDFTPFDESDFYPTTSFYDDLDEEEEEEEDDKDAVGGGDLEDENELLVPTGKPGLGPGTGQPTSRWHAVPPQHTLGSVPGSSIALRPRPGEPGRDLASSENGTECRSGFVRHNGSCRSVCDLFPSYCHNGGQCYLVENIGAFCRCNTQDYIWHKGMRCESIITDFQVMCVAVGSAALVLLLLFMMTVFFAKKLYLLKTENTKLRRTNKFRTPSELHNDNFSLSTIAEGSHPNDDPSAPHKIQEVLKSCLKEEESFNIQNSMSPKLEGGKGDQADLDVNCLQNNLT
Method: as §3, §4

[5] = target: mouse CSPG5-GST (mouse); assay: SPR Biacore T-100, antibody captured, mouse CSPG5-GST analyte
Method: The affinity of the anti-CSPG5 antibodies, the CSPG5202 IgG4PE(R409K), and the AVM IgG4PE(R409K) CSPG5202 dscFv produced in Example 2 for human CSPG5 and mouse CSPG5 was measured using Biacore T-100 (GE Healthcare).
Each of the antibodies was immobilized on a […] sensor chip using a Human antibody Capture kit, and the binding ability was evaluated using human CSPG5-GST and mouse CSPG5-GST produced in Example 4 as analytes. The obtained sensorgram was analyzed with BIA evaluation software, and the dissociation constant (KD value) was calculated.

[6] = target: T3, monkey CSPG5 (monkey (rhesus monkey), UniProt O95196 31-566 (human entry)); assay: FACS, 10 µg/mL antibody, monkey CSPG5/Expi293F vs Expi293F
T3 construct: Full-length gene expressed on Expi293F cells; also called monkey CSPG5/Expi293F cells; rhesus monkey CSPG5
T3 chain: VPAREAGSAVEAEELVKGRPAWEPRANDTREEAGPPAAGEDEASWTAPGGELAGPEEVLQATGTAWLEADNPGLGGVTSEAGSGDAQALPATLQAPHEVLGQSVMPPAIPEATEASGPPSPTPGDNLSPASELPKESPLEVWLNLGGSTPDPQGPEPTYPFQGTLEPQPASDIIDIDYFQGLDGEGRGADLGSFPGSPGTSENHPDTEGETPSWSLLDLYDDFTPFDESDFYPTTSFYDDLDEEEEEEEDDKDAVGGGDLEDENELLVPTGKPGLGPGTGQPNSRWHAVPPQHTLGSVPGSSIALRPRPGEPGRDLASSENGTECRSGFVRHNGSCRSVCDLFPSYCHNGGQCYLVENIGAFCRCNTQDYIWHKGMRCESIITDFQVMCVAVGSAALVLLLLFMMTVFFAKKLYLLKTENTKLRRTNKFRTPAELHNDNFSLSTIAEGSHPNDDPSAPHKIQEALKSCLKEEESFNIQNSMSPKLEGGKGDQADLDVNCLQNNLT
Method: as §3, §4

B1: pCANTAB_CSPG5115 phage clone (scFv, V domains shown)
VH: EVQLVQSGAEVKKPGASLKVSCKASGYSFTDYIIHWVRQAPGQSLEWMGWINGGSGVPKYSDKFQGRVTITRDTSANTAYMEIRSLGSEDTAVYYCARGGVCSGDKCYYYGMDVWGQGTTVTVSS
VL: QSVLTQPPSVSVSPGQTASITCSGDKLGDKYSWWYQQKPGQSPLLVIHQDNKRPSGIPERFSGSNSGNTATLTIVGTQAMDEADYYCQAWDRGVVFGGGTKLTVL
notes: also called CSPG5115 scFv on phage
[1]
  binding result: binds
[2]
  binding result: binds

B2: pCANTAB_CSPG5206 phage clone (scFv, V domains shown)
VH: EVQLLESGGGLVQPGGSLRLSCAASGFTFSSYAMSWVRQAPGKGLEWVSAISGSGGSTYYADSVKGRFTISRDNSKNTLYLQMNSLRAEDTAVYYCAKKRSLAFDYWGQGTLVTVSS
VL: QSALTQPASVSGSPGQSITISCTGTSTDVNGYNYVSWYQQYAGKAPKLIIFDVSKRPSGVSNRFSGSKSGDTASLTISGLQAEDEADYHCSSYNRKRPPVLFGGGTKLTVL
notes: also called CSPG5206 scFv on phage
[1]
  binding result: binds
[2]
  binding result: binds

B3: pCANTAB_CSPG5230 phage clone (scFv, V domains shown)
VH: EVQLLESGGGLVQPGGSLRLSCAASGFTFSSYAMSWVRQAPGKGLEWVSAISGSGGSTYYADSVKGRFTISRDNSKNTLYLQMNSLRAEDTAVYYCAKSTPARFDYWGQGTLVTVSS
VL: QSALTQPASVSGSPGQSITISCTGTSTDVNGYNYVSWYQQYAGKAPKLIIFDVSKRPSGVSNRFSGSKSGDTASLTISGLQAEDEADYHCSSYHTRPATVLFGGGTKLTVL
notes: also called CSPG5230 scFv on phage
[1]
  binding result: binds
[2]
  binding result: binds

B4: pCANTAB_CSPG5207 phage clone (scFv, V domains shown)
VH: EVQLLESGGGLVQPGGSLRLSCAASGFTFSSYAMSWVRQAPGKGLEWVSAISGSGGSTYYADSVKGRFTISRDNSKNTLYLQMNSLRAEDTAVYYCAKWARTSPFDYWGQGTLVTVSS
VL: QSALTQPASVSGSPGQSITISCTGTSTDVNGYNYVSWYQQYAGKAPKLIIFDVSKRPSGVSNRFSGSKSGDTASLTISGLQAEDEADYHCSSYTPSRARVLFGGGTKLTVL
notes: also called CSPG5207 scFv on phage
[1]
  binding result: binds
[2]
  binding result: binds

B5: pCANTAB_CSPG5214 phage clone (scFv, V domains shown)
VH: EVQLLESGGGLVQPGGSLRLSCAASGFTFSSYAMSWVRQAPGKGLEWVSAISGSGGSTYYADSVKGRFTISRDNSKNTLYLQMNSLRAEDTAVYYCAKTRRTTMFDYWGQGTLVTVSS
VL: QSALTQPASVSGSPGQSITISCTGTSTDVNGYNYVSWYQQYAGKAPKLIIFDVSKRPSGVSNRFSGSKSGDTASLTISGLQAEDEADYHCSSYNPHHSGVLFGGGTKLTVL
notes: also called CSPG5214 scFv on phage
[1]
  binding result: binds
[2]
  binding result: binds

B6: pCANTAB_CSPG5234 phage clone (scFv, V domains shown)
VH: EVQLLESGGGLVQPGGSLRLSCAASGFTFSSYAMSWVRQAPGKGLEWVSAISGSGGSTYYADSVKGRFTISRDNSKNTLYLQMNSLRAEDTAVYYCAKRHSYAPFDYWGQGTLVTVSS
VL: QSALTQPASVSGSPGQSITISCTGTSTDVNGYNYVSWYQQYAGKAPKLIIFDVSKRPSGVSNRFSGSKSGDTASLTISGLQAEDEADYHCSSYRPKARSVLFGGGTKLTVL
notes: also called CSPG5234 scFv on phage
[1]
  binding result: binds
[2]
  binding result: binds

B7: CSPG5115 scFv-hG4PE(R409K) (Fc fusion)
VH: EVQLVQSGAEVKKPGASLKVSCKASGYSFTDYIIHWVRQAPGQSLEWMGWINGGSGVPKYSDKFQGRVTITRDTSANTAYMEIRSLGSEDTAVYYCARGGVCSGDKCYYYGMDVWGQGTTVTVSS
VL: QSVLTQPPSVSVSPGQTASITCSGDKLGDKYSWWYQQKPGQSPLLVIHQDNKRPSGIPERFSGSNSGNTATLTIVGTQAMDEADYYCQAWDRGVVFGGGTKLTVL
notes: also called anti-CSPG5 scFv-Fc antibody
[3]
  Mean fluorescence intensity ratio: 3.44 ratio to parent cell line
[4]
  Mean fluorescence intensity ratio: 3.24 ratio to parent cell line
[5]
  Kd: ≤ 10 nM
[6]
  Mean fluorescence intensity ratio: 3.56 ratio to parent cell line

B8: CSPG5120 scFv-hG4PE(R409K) (Fc fusion)
VH: EVQLVQSGGGLVQPGGSLRLSCAASGFTFSNYWMTWVRQAPGEGPEWVANINQDGSQKYYVDSVKGRFTISRDNAKNSLNLQMNNLRAEDTALYYCAKSNAMDVWGQGTLVTVSS
VL: DIVMTQSPLSLPVTPGEPASISCRSSESLLHSNGYNYLNWYLQKPGQSPQLLIYLGSHRASGVPDRLSGSGSDTDFTLKISRVEAEDVGIYYCMQGRQTPITFGGGTKLEIK
notes: as for B7
[3]
  Mean fluorescence intensity ratio: 20.4 ratio to parent cell line
[4]
  Mean fluorescence intensity ratio: 18.5 ratio to parent cell line
[5]
  Kd: ≤ 10 nM
[6]
  Mean fluorescence intensity ratio: 8.01 ratio to parent cell line

B9: pCANTAB_CSPG5219 phage clone (scFv, V domains shown)
VH: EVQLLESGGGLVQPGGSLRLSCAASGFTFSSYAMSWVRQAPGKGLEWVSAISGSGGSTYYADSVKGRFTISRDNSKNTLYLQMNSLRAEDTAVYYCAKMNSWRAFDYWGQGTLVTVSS
VL: EIVLTQSPGTLSLSPGERATLSCRASQSVSSSYLAWYQQKPGQAPRLLIYGASSRATGIPDRFSGSGSGTDFTLTISRLEPEDFAVYYCQQLRRKGSTFGQGSKVEIK
notes: also called CSPG5219 scFv on phage
[1]
  binding result: binds
[2]
  binding result: binds

B10: pCANTAB_CSPG5120 phage clone (scFv, V domains shown)
VH: EVQLVQSGGGLVQPGGSLRLSCAASGFTFSNYWMTWVRQAPGEGPEWVANINQDGSQKYYVDSVKGRFTISRDNAKNSLNLQMNNLRAEDTALYYCAKSNAMDVWGQGTLVTVSS
VL: DIVMTQSPLSLPVTPGEPASISCRSSESLLHSNGYNYLNWYLQKPGQSPQLLIYLGSHRASGVPDRLSGSGSDTDFTLKISRVEAEDVGIYYCMQGRQTPITFGGGTKLEIK
notes: also called CSPG5120 scFv on phage
[1]
  binding result: binds
[2]
  binding result: binds

B11: pCANTAB_CSPG5168 phage clone (scFv, V domains shown)
VH: EVQLVETGGALVQPGGSLRLSCAGSGFIFSKYEMTWVRQAPGKGLEWVSTIGSLGLKTFYTDSVKGRFTTSRDNSRDTLFLQMDNLRVEDTAIYFCVKGGIRRADYWGKGTLVTVSS
VL: EIVMTQSPATLSLSPGERATLSCRASQSVSSYLAWYQQKPGQAPRLLIYDASNRATGIPARFSGSGSGTDFTLTISSLEPEDFAVYYCQQRSNWPLTFGGGTKVEIK
notes: also called CSPG5168 scFv on phage
[1]
  binding result: binds
[2]
  binding result: binds

B12: pCANTAB_CSPG5201 phage clone (scFv, V domains shown)
VH: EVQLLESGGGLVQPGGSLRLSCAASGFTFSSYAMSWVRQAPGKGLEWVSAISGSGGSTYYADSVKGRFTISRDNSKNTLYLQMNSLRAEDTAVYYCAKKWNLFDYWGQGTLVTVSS
VL: QSALTQPASVSGSPGQSITISCTGTSTDVNGYNYVSWYQQYAGKAPKLIIFDVSKRPSGVSNRFSGSKSGDTASLTISGLQAEDEADYHCSSYRRLRLPVLFGGGTKLTVL
notes: also called CSPG5201 scFv on phage
[1]
  binding result: binds
[2]
  binding result: binds
